To fix the notation:
T1: recombinant human activated Factor VII (FVIIa) (human, UniProt P08709 61-212; P08709 213-466, ten glutamate residues of the Gla domain may be gamma-carboxylated)
T1 construct: chains tethered by a disulfide bond; also called Factor VIIa; rFVIIa
T1 sequence 1: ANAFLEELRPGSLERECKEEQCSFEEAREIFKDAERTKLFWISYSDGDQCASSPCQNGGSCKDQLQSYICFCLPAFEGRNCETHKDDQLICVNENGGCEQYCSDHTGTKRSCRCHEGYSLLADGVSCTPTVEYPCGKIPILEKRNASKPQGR
T1 sequence 2: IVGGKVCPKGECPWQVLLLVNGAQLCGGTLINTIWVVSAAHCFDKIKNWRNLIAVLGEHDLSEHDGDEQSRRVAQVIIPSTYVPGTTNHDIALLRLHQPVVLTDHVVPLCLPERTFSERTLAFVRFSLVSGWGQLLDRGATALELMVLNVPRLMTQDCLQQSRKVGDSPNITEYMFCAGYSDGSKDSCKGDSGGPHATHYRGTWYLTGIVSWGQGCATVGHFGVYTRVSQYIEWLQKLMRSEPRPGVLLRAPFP

B1: VH SEQ ID NO 618 / VL SEQ ID NO 486 (antibody, IgG4, V domains shown)
VH: QVQLQESGPGLVKPSQTLSLTCTVSGYSISSDSAWSWIRQFPGKGLEWIGYIQYSGSTNYNPSLKSRVTISRDTSKNQFSLKLSSVTAADTAVYYCARSVNYYGNSFAVGPWGQGTLVTVSS
VL: EIVLTQSPATLSLSPGERATLSCRASQGVSDYLHWYQQKPGQAPRLLIKYASQPATGIPARFSGSGSGTDFTLTISSLEPEDFGVYYCQNGHSFPLTFGQGTKLEIK
notes: humanized 11F2; IgG4 S228P/kappa
B2: VH SEQ ID NO 626 / VL SEQ ID NO 310 (antibody, IgG4, V domains shown)
VH: QVQLQESGPGLVKPSQTLSLTCTVSGYSISSDSAWSWIRQPPGKGLEWIGYIQYSGSTNYNPSLKSRVTISRDTSKNQFSLKLSSVTAADTAVYYCARSVNYYGNSFAVGPWGQGTLVTVSS
VL: EIVLTQSPATLSLSPGERATLSCRASQGISDYLAWYQQKPGQAPRLLIKYASQPATGIPARFSGSGSGTDFTLTISSLEPEDFAVYYCQNGHSFPLTFGQGTKLEIK
notes: as for B1
B3: VH SEQ ID NO 626 / VL SEQ ID NO 366 (antibody, IgG4, V domains shown)
VH: QVQLQESGPGLVKPSQTLSLTCTVSGYSISSDSAWSWIRQPPGKGLEWIGYIQYSGSTNYNPSLKSRVTISRDTSKNQFSLKLSSVTAADTAVYYCARSVNYYGNSFAVGPWGQGTLVTVSS
VL: EIVLTQSPATLSLSPGERATLSCRASQGLSDYLAWYQQKPGEAPRLLIKYASQPATGIPARFSGSGSGTDFTLTISSLEPEDFAVYYCQNGHSFPLTFGQGTKLEIK
notes: as for B1
B4: VH SEQ ID NO 626 / VL SEQ ID NO 326 (antibody, IgG4, V domains shown)
VH: QVQLQESGPGLVKPSQTLSLTCTVSGYSISSDSAWSWIRQPPGKGLEWIGYIQYSGSTNYNPSLKSRVTISRDTSKNQFSLKLSSVTAADTAVYYCARSVNYYGNSFAVGPWGQGTLVTVSS
VL: EIVLTQSPATLSLSPGERATLSCRASQGISDYLHWYQQKPGEAPRLLIKYTSQPATGIPARFSGSGSGTDFTLTISSLEPEDFGVYYCQNGHSFPLTFGAGTKLELK
notes: as for B1
B5: VH SEQ ID NO 626 / VL SEQ ID NO 414 (antibody, IgG4, V domains shown)
VH: QVQLQESGPGLVKPSQTLSLTCTVSGYSISSDSAWSWIRQPPGKGLEWIGYIQYSGSTNYNPSLKSRVTISRDTSKNQFSLKLSSVTAADTAVYYCARSVNYYGNSFAVGPWGQGTLVTVSS
VL: EIVLTQSPATLSLSPGERATLSCRASQGVSDYLAWYQQKPGQAPRLLIKYASQPATGIPARFSGSGSGTDFTLTISSLEPEDFAVYYCQNGHSFPLTFGQGTKLEIK
notes: as for B1
B6: VH SEQ ID NO 626 / VL SEQ ID NO 398 (antibody, IgG4, V domains shown)
VH: QVQLQESGPGLVKPSQTLSLTCTVSGYSISSDSAWSWIRQPPGKGLEWIGYIQYSGSTNYNPSLKSRVTISRDTSKNQFSLKLSSVTAADTAVYYCARSVNYYGNSFAVGPWGQGTLVTVSS
VL: EIVLTQSPATLSLSPGERATLSCRASQGVSDYLAWYQQKPGEAPRLLIKYTSQPATGIPARFSGSGSGTDFTLTISSLEPEDFAVYYCQNGHSFPLTFGQGTKLEIK
notes: as for B1
B7: VH SEQ ID NO 626 / VL SEQ ID NO 430 (antibody, IgG4, V domains shown)
VH: QVQLQESGPGLVKPSQTLSLTCTVSGYSISSDSAWSWIRQPPGKGLEWIGYIQYSGSTNYNPSLKSRVTISRDTSKNQFSLKLSSVTAADTAVYYCARSVNYYGNSFAVGPWGQGTLVTVSS
VL: EIVLTQSPATLSLSPGERATLSCRASQGVSDYLAWYQQKPGQAPRLLIKYASQPATGIPARFSGSGSGTDFTLTISSLEPEDFGVYYCQNGHSFPLTFGQGTKLEIK
notes: as for B1
B8: VH SEQ ID NO 626 / VL SEQ ID NO 382 (antibody, IgG4, V domains shown)
VH: QVQLQESGPGLVKPSQTLSLTCTVSGYSISSDSAWSWIRQPPGKGLEWIGYIQYSGSTNYNPSLKSRVTISRDTSKNQFSLKLSSVTAADTAVYYCARSVNYYGNSFAVGPWGQGTLVTVSS
VL: EIVLTQSPATLSLSPGERATLSCRASQGLSDYLHWYQQKPGEAPRLLIKYASQPATGIPARFSGSGSGTDFTLTISSLEPEDFAVYYCQNGHSFPLTFGQGTKLEIK
notes: as for B1
B9: VH SEQ ID NO 626 / VL SEQ ID NO 350 (antibody, IgG4, V domains shown)
VH: QVQLQESGPGLVKPSQTLSLTCTVSGYSISSDSAWSWIRQPPGKGLEWIGYIQYSGSTNYNPSLKSRVTISRDTSKNQFSLKLSSVTAADTAVYYCARSVNYYGNSFAVGPWGQGTLVTVSS
VL: EIVLTQSPATLSLSPGERATLSCRASQGISDYLHWYQQKPGQAPRLLIKYTSQPATGIPARFSGSGSGTDFTLTISSLEPEDFAVYYCQNGHSFPLTFGAGTKLELK
notes: as for B1
B10: VH SEQ ID NO 626 / VL SEQ ID NO 422 (antibody, IgG4, V domains shown)
VH: QVQLQESGPGLVKPSQTLSLTCTVSGYSISSDSAWSWIRQPPGKGLEWIGYIQYSGSTNYNPSLKSRVTISRDTSKNQFSLKLSSVTAADTAVYYCARSVNYYGNSFAVGPWGQGTLVTVSS
VL: EIVLTQSPATLSLSPGERATLSCRASQGVSDYLAWYQQKPGQAPRLLIKYASQPATGIPARFSGSGSGTDFTLTISSLEPEDFAVYYCQQGHSFPLTFGQGTKLEIK
notes: as for B1
B11: VH SEQ ID NO 618 / VL SEQ ID NO 494 (antibody, IgG4, V domains shown)
VH: QVQLQESGPGLVKPSQTLSLTCTVSGYSISSDSAWSWIRQFPGKGLEWIGYIQYSGSTNYNPSLKSRVTISRDTSKNQFSLKLSSVTAADTAVYYCARSVNYYGNSFAVGPWGQGTLVTVSS
VL: EIVLTQSPATLSLSPGERATLSCRASQGVSDYLHWYQQKPGQAPRLLIKYASQPATGIPARFSGSGSGTDFTLTISSLEPEDVAVYYCQNGHSFPLTFGQGTKLEIK
notes: as for B1
B12: VH SEQ ID NO 626 / VL SEQ ID NO 390 (antibody, IgG4, V domains shown)
VH: QVQLQESGPGLVKPSQTLSLTCTVSGYSISSDSAWSWIRQPPGKGLEWIGYIQYSGSTNYNPSLKSRVTISRDTSKNQFSLKLSSVTAADTAVYYCARSVNYYGNSFAVGPWGQGTLVTVSS
VL: EIVLTQSPATLSLSPGERATLSCRASQGVSDYLAWYQQKPGEAPRLLIKYASQPATGIPARFSGSGSGTDFTLTISSLEPEDFAVYYCQNGHSFPLTFGQGTKLEIK
notes: as for B1
B13: VH SEQ ID NO 626 / VL SEQ ID NO 438 (antibody, IgG4, V domains shown)
VH: QVQLQESGPGLVKPSQTLSLTCTVSGYSISSDSAWSWIRQPPGKGLEWIGYIQYSGSTNYNPSLKSRVTISRDTSKNQFSLKLSSVTAADTAVYYCARSVNYYGNSFAVGPWGQGTLVTVSS
VL: EIVLTQSPATLSLSPGERATLSCRASQGVSDYLAWYQQKPGQAPRLLIKYASQPATGIPARFSGSGSGTDFTLTISSLEPEDVAVYYCQNGHSFPLTFGQGTKLEIK
notes: as for B1
B14: VH SEQ ID NO 626 / VL SEQ ID NO 334 (antibody, IgG4, V domains shown)
VH: QVQLQESGPGLVKPSQTLSLTCTVSGYSISSDSAWSWIRQPPGKGLEWIGYIQYSGSTNYNPSLKSRVTISRDTSKNQFSLKLSSVTAADTAVYYCARSVNYYGNSFAVGPWGQGTLVTVSS
VL: EIVLTQSPATLSLSPGERATLSCRASQGISDYLHWYQQKPGQAPRLLIKYASQPATGIPARFSGSGSGTDFTLTISSLEPEDFAVYYCQNGHSFPLTFGQGTKLEIK
notes: as for B1
B15: VH SEQ ID NO 626 / VL SEQ ID NO 342 (antibody, IgG4, V domains shown)
VH: QVQLQESGPGLVKPSQTLSLTCTVSGYSISSDSAWSWIRQPPGKGLEWIGYIQYSGSTNYNPSLKSRVTISRDTSKNQFSLKLSSVTAADTAVYYCARSVNYYGNSFAVGPWGQGTLVTVSS
VL: EIVLTQSPATLSLSPGERATLSCRASQGISDYLHWYQQKPGQAPRLLIKYTSQPATGIPARFSGSGSGRDFTLTISSLEPEDFAVYYCQNGHSFPLTFGAGTKLELK
notes: as for B1
B16: VH SEQ ID NO 626 / VL SEQ ID NO 406 (antibody, IgG4, V domains shown)
VH: QVQLQESGPGLVKPSQTLSLTCTVSGYSISSDSAWSWIRQPPGKGLEWIGYIQYSGSTNYNPSLKSRVTISRDTSKNQFSLKLSSVTAADTAVYYCARSVNYYGNSFAVGPWGQGTLVTVSS
VL: EIVLTQSPATLSLSPGERATLSCRASQGVSDYLAWYQQKPGQAPRLLIKYASQPATGIPARFSGSGSGTDFTLTISSLEPEDFAVYYCQNGHSFPLTFGAGTKLEIK
notes: as for B1
B17: VH SEQ ID NO 626 / VL SEQ ID NO 446 (antibody, IgG4, V domains shown)
VH: QVQLQESGPGLVKPSQTLSLTCTVSGYSISSDSAWSWIRQPPGKGLEWIGYIQYSGSTNYNPSLKSRVTISRDTSKNQFSLKLSSVTAADTAVYYCARSVNYYGNSFAVGPWGQGTLVTVSS
VL: EIVLTQSPATLSLSPGERATLSCRASQGVSDYLAWYQQKPGQAPRLLIKYTSQPATGIPARFSGSGSGTDFTLTISSLEPEDFAVYYCQNGHSFPLTFGQGTKLEIK
notes: as for B1
B18: VH SEQ ID NO 618 / VL SEQ ID NO 502 (antibody, IgG4, V domains shown)
VH: QVQLQESGPGLVKPSQTLSLTCTVSGYSISSDSAWSWIRQFPGKGLEWIGYIQYSGSTNYNPSLKSRVTISRDTSKNQFSLKLSSVTAADTAVYYCARSVNYYGNSFAVGPWGQGTLVTVSS
VL: EIVLTQSPATLSLSPGERATLSCRASQGVSDYLHWYQQKPGQAPRLLIKYTSQPATGIPARFSGSGSGTDFTLTISSLEPEDFAVYYCQNGHSFPLTFGQGTKLEIK
notes: as for B1
B19: VH SEQ ID NO 626 / VL SEQ ID NO 318 (antibody, IgG4, V domains shown)
VH: QVQLQESGPGLVKPSQTLSLTCTVSGYSISSDSAWSWIRQPPGKGLEWIGYIQYSGSTNYNPSLKSRVTISRDTSKNQFSLKLSSVTAADTAVYYCARSVNYYGNSFAVGPWGQGTLVTVSS
VL: EIVLTQSPATLSLSPGERATLSCRASQGISDYLHWYQQKPGEAPRLLIKYTSQPATGIPARFSGSGSGTDFTLTISSLEPEDFAVYYCQNGHSFPLTFGQGTKLEIK
notes: as for B1
B20: VH SEQ ID NO 626 / VL SEQ ID NO 358 (antibody, IgG4, V domains shown)
VH: QVQLQESGPGLVKPSQTLSLTCTVSGYSISSDSAWSWIRQPPGKGLEWIGYIQYSGSTNYNPSLKSRVTISRDTSKNQFSLKLSSVTAADTAVYYCARSVNYYGNSFAVGPWGQGTLVTVSS
VL: EIVLTQSPATLSLSPGERATLSCRASQGISDYLHWYQQKPGQAPRLLIKYTSQPATGIPARFSGSGSGTDFTLTISSLEPEDFAVYYCQNGHSFPLTFGQGTKLEIK
notes: as for B1

In this test the target is T1, recombinant human activated Factor VII …. Put plainly: BLI (Fortebio). (In BLI a coated tip is dipped into the sample, and binding shifts an interference pattern.)
Consider B1, for which the Kd stood at 1.2 nM.

Turning to B2, the Kd was 9.2 nM.

As to B3, the Kd turned out to be 87 nM.

As for B4, the Kd is 0.79 nM.

As to B5, the Kd was 18 nM.

Turning to B6, the Kd was determined as 820 nM.

Regarding B7, the Kd turned out to be 53 nM.

Consider B8, for which the Kd amounted to 1.1 nM.

For B9, the Kd was found to be 0.65 nM.

On to B10, for which the Kd amounted to 2400 nM.

Take B11: the Kd came out at 1.4 nM.

Turning to B12, the dissociation constant Kd worked out at 27 nM.

For B13, the Kd came out at 77 nM.

As to B14, the Kd worked out at 0.95 nM.

Turning to B15, the equilibrium dissociation constant (Kd) was 0.85 nM.

Regarding B16, the Kd was 87 nM.

On to B17, for which the dissociation constant (Kd) came out at 880 nM.

Take B18: the Kd amounted to 1.2 nM.

Turning to B19, the Kd was 0.71 nM.

Turning to B20, the Kd is 0.72 nM.

As a reminder, the Kd is the concentration at which binding is half-saturated.

The record behind these values is US20220064329A1 (Novo Nordisk, published 2022).
